Experimental data from the supplement of paper PMC9170038.

test system: MS2 coat protein; assay: apparent KD of MS2 coat protein; higher = weaker reporter binding; conditions: Eterna round: R107; input ligand: theophylline 20 uM
How it was run: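 Apparent KD per design is the median of normalised cluster binding-curve fits. Designed RNA switches transcribed on-chip from Illumina sequencing clusters were titrated with SNAP-549-labelled MS2 coat protein in twofold steps from 0.7 or 1.5 nM to 3 µM, with 0.8–1.5 h down to 10–20 min per step. Buffer: 100 mM Tris-HCl pH 7.5, 80 mM KCl, 4 mM MgCl2, without or with constant ligand.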

In order of rising “apparent KD of MS2 coat protein” value:
1. AAUUCCUAACAUGAGGAUCACCCAUGUGAAGGAGCGCGGAAUAACGCAGGUAGGUCGCACAUGGAACCGCUGCGAUAGCAGCAAA [MAT - Exclusion Arginine A - Mod of Eli - D29]  0.0133 µM
2. GAUAUACGUGCGGCCGCCACUGAGUGGCGGGCGUGUCGAGUUACAUGAGGAUCACCCAUGUCACUCAGGACCGGGCACGGAAUUU [Soveri]  0.0141 µM
3. GGUCUCUGGAGCGAUACCAGCUUAAUCGUACUGGCCAGGUACAUGAGGAUCACCCAUGUAAGCCCUUGGCAGCGCUCCAGAGACC [#1 Exclusion - Theophylline B Attempt #11 (HarryS)]  0.0164 µM
4. UCGGGCAUAGCGGCCGCCACUGUUUGGCGUGCGGAUGACGGAACAUGAGGAUCACCCAUGUUGUUUAGGACCGGGCUUGCGUCGU [zyzmullin]  0.0178 µM
5. UAUCCACAUGAGGAUCACCCAUGUUAGGAAGGAGCGGUGAAUGAACCAGGUAGGUCGCCUAGGUGAGGACCAUCUAUGGAUUCGU [Exclusion - Arginine A (Freestyle 12)]  0.0198 µM
6. UCGCAUUGCUCAGAUACCAGACAUGAGGAUCACCCAUGUACCAAGGUAACCGAAAGGCAUGUCCCUUGGCAGCUGAGCAAUGCGU [MAT - Exclusion Theophlline B - Mod of Eli - D14]  0.0211 µM
7. GAGCGCAGUUUACAACAUACUAACACAGAUACCAGAAAUUUUAUGUUCCCUUGGCAGCUGACAACAUGAGGAUCACCCAUGUGCU [theeternabot_exclusion_MS2_Theo_A_27]  0.0212 µM
8. AUAAGUAAUGUCUCGUGUAUUAUUACAGAUACCAGACUAUCCUAUGUCCCUUGGCAGCUGGAUUACAUGAGGAUCACCCAUGUUG [#10 Exclusion-TheophyllineA]  0.0253 µM
9. UUAUAAGUACCGGUCCUCAGAUCCUCAUGACGAGGACCGGUACGGCCGCCACUCGAAACAUGAGGAUCACCCAUGUAAUAACAUC [Brourdmod21]  0.0275 µM
10. AUAAGUAUGUUUUCGUGUUUUAUUACAGAUACCAGACUAUACGUUGUCCCUUGGCAGCUGGAUUACAUGAGGAUCACCCAUGUUG [#26 Exclusion-TheophyllineA]  0.032 µM
11. AACAUGAGGAUCACCCAUGUAAAAUGGGAUACCAGAGACGAAAGUCUCCCUUGGCAGCCCACUGCCUCCUUUACGAAAGUAGAGG [Theophylline A 15]  0.0325 µM
12. GGUUACUCUACGGCCGCCACUGAUUAUUUAUAAUCCUGUACAUAAACAUGAGGAUCACCCAUGUACAGGACCGGGUAGUGUAACC [Tryptophan B 11]  0.0377 µM
13. GGUUGAAACUGAAGGAGCGAGAUGACAACAUUGGGUCUAACAUGAGGAUCACCCAUGUAAUCUCAGGUAGGUCGCAGUGACCAAA [Exclusion Arginine B GF 14]  0.0415 µM
14. ACAAUAUUGAGUUUGUCUCAAGUUUCAGAAGGAGCGUGAGGAAUCACAGGUAGGUCGCUGAUAACAUGAGGAUCACCCAUGUAUU [JR_SSArginiA_Sub005]  0.0431 µM
15. AUAAAUAAGGCGGCCGCCACUAAUAUAUUAAUAUUUUAUAUCCGACAUGAGGAUCACCCAUGUGGUAGGACCGGGCCAAUAAUUA [Same State - Tryptophan B]  0.0434 µM
16. GAUGAACUAUUUGAUACCAGACAACAUGAGGAUCACCCAUGUGCGCGUCGUCCUCUGCCUGUCCCUUGGCAGCGGAUAGUUUAUC [XTheo B #12]  0.124 µM
17. AUCGUACCUGAUGAUACCAGCAAGUGAUCAUAACAUGAGGAUCACCCAUGUAAUCAGUGAUGCCCUUGGCAGCAUAGUCGAUACA [Same State - Theophylline B (Freestyle 5)]  0.199 µM
18. UUUACAUGAGGAUCACCCAUGUGCCAUGAUACCAGACAUGAAAAUGUCCCUUGGCAGCAUGAGUGAAGCGUCGGGAAACCGACGC [Kninicky]  0.229 µM
19. AGCUCGCAAUCCUCAGCGUCAAAGACGCGUCGAGGACCGGUACGGCCGCCACUCGACAAGAGGAUCACCCUUGUCUAAGCGAGCA [TrypAX 5 #SwitchBubble #AlternativeMS2 #MS2Late #CuTurnoff]  0.355 µM

same assay, conditions: Eterna round: R107; input ligand: theophylline 2 mM

In order of rising “apparent KD of MS2 coat protein” value:
1. ACGCCCGCCUCACAUGAGGAUCACCCAUGUCGAGGACCGGUACGGCCGCCACUCGUCGUCGGUAAUACGGGCGUUGAAUAAUAUA [Atedon]  0.0144 µM
2. UCGGGCAUAGCGGCCGCCACUGUUUGGCGUGCGGAUGACGGAACAUGAGGAUCACCCAUGUUGUUUAGGACCGGGCUUGCGUCGU [zyzmullin]  0.0145 µM
3. UAUCCACAUGAGGAUCACCCAUGUUAGGAAGGAGCGGUGAAUGAACCAGGUAGGUCGCCUAGGUGAGGACCAUCUAUGGAUUCGU [Exclusion - Arginine A (Freestyle 12)]  0.0146 µM
4. AGAUGAGUCACGGCCGCCACUCUUCACAGGUUCACCCUUGGUUAACAUGAGGAUCACCCAUGUGGGAGGACCGGGUGAUGAGCAU [XTryp B #5]  0.0156 µM
5. GGCACCAGGAGAAGGAGCGUGAAGACAUGAGGAUCACCCAUGUAGAGGCCCGGACCGGGUUCGCAGGUAGGUCGCUCCUGGUGCC [#1 Same State - Arginine B Attempt #15 (HarryS)]  0.023 µM
6. AGAUGAGUCACGGCCGCCACUCACUACAGGUUCACCCUUGGUUAACAUGAGGAUCACCCAUGUGGGAGGACCGGGUGAUGAGCAU [XTryp B #4]  0.0256 µM
7. UUAUAAGUACCGGUCCUCAGAUCCUCAUGACGAGGACCGGUACGGCCGCCACUCGAAACAUGAGGAUCACCCAUGUAAUAACAUC [Brourdmod21]  0.0259 µM
8. GCACCAGGUACGGAUACCAGAGCAAGCCAAAUGAGUGAACUUGAGGAUCACCCAAGUUUGCUCCCUUGGCAGCCGUACCUGGUGC [ETB NP+V+V2 #12 Diff Apt, +-Same Structure]  0.0292 µM
9. CUAAUUAAAUCGGCCGCCACUUACUCAUGAGGUAACAACAUGAGGAUCACCCAUGUUUGAGGAUCAAGGACCGGGAUUUAAUUAG [AstrosSSTry#23]  0.0301 µM
10. GGGACAUGAGGAUCACCCAUGUACCGGUCCCGAGGACCGGUACGGCCGCCACUCGAUGACCUCAUAGUCUACUUGAGCAGUAGAC [Geeson]  0.0386 µM
11. UUUAAAUAGACGGCCGCCACUGGAAUUAAUACAUGAGGAUCACCCAUGUAGAGAGAAUAAUAAUACAGGACCGGGUCUUCAUGAA [SS Tryp B Tesla 1]  0.0389 µM
12. ACAUGAGGAUCACCCAUGUCAUGAGGUUCACGAGGACCGGUACGGCCGCCACUCGACAUGAGGGUCACCCGUGAAGGGAACACCC [xdmullin]  0.0429 µM
13. GGGCCCGGGCGCGAGCCCGGGCCCAUUGAUACCAGUGAAUGUGUGCGCCCUUGGCAGCGAAUCCUAACAUGAGGAUCACCCAUGU [5.E]  0.0504 µM
14. UGCCGAGACGUGGAUUACCCGUGUACCGAAGGAGCGCCCGAAAGGGCAGGUAGGUCGCGGAGGACAUGAGGAUCACCCAUGUUUA  0.0798 µM
15. AAACAUGAGGAUCACCCAUGUAAAGUUGAAGGAGCGACCAGAGGGUCAGGUAGGUCGCAACACAUGAGGAUCACCCAUGUAUCGA [DOUBLE!!! :-D #5]  0.0916 µM
16. AGGACGGUCGGAAGGAGCGGUACAUGAGGAUCACCCAUGUAUUCCUGGGCAUCCGUAGUGUGCCAGGUAGGUCGCCGAUUGCGGG [XArg-B7]  0.103 µM
17. GACAUGAGGAUCACCCAUGUGUAACCAGAAGGAGCGUGCGAAAGCACAGGUAGGUCGCUGGUGGGUUUAGGUUUAGUAGGUGUUC [SSAA NP+V+V2 #3]  0.139 µM
18. ACACAUGAGGAUCAUCCAUGUGCCCAUGAAGGAGCGUGGGAAACCACAGGUAGGUCGCAUGACAUGAGGAUCACCCAUGUUUAUU [#03 Exclusion - Arginine A]  0.366 µM
